Measurements reported in publication PMC4637274.

Key:
[1] = biological target: BG505 gp140 NFL2P (HIV-1 (BG505)); assay: negative-stain EM of unliganded trimers
[2] = biological target: BG505 gp140 NFL2P (HIV-1 (BG505)); assay: SEC + native gel or EMSA
[3] = biological target: JRFL gp140 NFL2P (HIV-1 (JRFL)); assay: negative-stain EM of unliganded trimers
[4] = biological target: JRFL gp140 NFL2P (HIV-1 (JRFL)); assay: SEC + native gel or EMSA
[5] = biological target: 16055 gp140 NFL2P (HIV-1 (16055)); assay: negative-stain EM of unliganded trimers

Substance: BG505 gp140 NFL2P
- stoichiometry N [1]: 3
- stoichiometry N [2]: 3

Substance: JRFL gp140 NFL2P
- stoichiometry N [3]: 3
- stoichiometry N [4]: 3

Substance: 16055 gp140 NFL2P
- stoichiometry N [5]: 3
